From patent US20220119825A1, “SCALABLE PEPTIDE-GPCR INT[…] SYSTEMS” (THE TRUSTEES OF COLUMBIA UNIVERSITY IN THE CITY OF NEW YORK, priority 2019, published 2022) come the findings set out here.

Experiment in all cases: cell-based or functional assay
In experiment [1] the target is T1, Cg.Ste2, Ste2-like mating GPCR of Candida glabrata (Candida glabrata).
T1 chain: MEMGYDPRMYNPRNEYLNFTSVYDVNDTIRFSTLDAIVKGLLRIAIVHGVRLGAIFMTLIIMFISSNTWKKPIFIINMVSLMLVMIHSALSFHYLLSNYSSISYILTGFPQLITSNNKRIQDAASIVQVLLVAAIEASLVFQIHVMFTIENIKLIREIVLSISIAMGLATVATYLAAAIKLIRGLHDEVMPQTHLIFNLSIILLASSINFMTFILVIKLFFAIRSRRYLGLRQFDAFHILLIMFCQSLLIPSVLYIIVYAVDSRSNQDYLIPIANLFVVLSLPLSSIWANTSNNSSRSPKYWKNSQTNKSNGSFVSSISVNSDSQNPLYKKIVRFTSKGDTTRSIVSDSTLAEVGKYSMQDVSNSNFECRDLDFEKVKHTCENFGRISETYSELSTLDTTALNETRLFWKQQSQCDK

The target of experiment [2] is T2, Zb.Ste2, Ste2-like mating GPCR of Zygosaccharomyces bailii (Zygosaccharomyces bailii).
T2 chain: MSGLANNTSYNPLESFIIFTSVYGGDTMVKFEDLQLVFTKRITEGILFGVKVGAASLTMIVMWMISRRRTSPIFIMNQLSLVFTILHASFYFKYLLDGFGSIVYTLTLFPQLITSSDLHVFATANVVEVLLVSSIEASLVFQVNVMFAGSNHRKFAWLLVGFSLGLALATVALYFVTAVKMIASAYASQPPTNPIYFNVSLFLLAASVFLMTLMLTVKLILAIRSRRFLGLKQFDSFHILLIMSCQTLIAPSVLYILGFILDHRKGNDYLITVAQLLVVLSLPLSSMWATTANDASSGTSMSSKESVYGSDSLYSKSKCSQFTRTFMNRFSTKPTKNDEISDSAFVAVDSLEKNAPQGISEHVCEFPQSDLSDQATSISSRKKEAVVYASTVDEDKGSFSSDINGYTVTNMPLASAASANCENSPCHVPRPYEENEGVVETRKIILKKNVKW

The target in experiment [3] is T3, Vp2.Ste2, Ste2-like mating GPCR of Vanderwaltozyma polyspora2 (Vanderwaltozyma polyspora).
T3 chain: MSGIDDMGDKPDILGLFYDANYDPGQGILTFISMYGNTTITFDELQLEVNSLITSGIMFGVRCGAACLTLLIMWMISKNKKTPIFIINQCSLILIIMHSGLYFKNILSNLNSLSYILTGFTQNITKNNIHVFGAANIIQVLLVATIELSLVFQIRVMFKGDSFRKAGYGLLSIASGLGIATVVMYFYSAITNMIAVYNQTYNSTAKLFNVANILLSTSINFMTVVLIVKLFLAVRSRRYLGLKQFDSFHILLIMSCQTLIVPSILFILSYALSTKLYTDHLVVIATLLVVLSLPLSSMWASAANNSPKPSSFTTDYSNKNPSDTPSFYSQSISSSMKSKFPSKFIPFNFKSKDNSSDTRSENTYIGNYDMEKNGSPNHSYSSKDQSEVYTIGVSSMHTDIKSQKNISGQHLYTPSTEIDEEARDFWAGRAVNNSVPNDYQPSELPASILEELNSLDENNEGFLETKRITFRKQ

The target in experiment [4] is T4, Cl.Ste2, Ste2-like mating GPCR of Candida (Clavispora) lusitaniae (Candida (Clavispora) lusitaniae).
T4 chain: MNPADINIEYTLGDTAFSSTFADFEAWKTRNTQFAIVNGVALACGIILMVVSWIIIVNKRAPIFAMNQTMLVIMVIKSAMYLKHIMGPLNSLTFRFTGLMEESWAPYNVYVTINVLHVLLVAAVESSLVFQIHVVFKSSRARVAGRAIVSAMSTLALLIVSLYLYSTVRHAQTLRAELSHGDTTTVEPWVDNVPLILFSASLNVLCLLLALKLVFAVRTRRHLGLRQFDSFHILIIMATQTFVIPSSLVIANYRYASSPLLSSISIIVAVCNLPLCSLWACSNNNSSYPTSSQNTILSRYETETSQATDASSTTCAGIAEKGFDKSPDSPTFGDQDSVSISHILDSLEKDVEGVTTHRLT

Experiment [5] deals with T5, Vp1.Ste2, Ste2-like mating GPCR of Vanderwaltozyma polyspora1 (Vanderwaltozyma polyspora).
T5 chain: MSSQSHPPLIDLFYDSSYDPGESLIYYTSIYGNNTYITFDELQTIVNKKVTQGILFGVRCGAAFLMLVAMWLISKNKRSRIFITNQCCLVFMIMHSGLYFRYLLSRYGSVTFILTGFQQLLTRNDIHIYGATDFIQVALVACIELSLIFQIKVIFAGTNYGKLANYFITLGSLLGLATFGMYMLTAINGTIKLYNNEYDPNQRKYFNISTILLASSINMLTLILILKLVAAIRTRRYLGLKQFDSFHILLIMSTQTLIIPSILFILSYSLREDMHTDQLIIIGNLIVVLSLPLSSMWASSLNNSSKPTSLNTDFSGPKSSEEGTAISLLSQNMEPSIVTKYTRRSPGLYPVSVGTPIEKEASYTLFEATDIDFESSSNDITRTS

For experiment [6], the target named is T6, Ca.Ste2, Ste2-like mating GPCR of Candida albicans (Candida albicans).
T6 chain: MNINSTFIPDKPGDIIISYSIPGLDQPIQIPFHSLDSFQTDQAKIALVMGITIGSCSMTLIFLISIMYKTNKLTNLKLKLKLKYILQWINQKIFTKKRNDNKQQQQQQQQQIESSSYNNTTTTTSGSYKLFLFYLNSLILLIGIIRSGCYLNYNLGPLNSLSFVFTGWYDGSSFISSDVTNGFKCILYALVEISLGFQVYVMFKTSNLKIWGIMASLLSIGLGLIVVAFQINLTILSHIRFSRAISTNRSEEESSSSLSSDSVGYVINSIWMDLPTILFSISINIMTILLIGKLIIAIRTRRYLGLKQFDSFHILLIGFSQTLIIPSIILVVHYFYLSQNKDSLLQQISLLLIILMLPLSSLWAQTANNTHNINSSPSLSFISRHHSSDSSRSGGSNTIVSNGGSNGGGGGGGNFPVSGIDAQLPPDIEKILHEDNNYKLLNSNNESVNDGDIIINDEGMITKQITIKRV

The target in experiment [7] is T7, Cgu.Ste2, Ste2-like mating GPCR of Candida (Pichia) guilliermondii (Candida (Pichia) guilliermondii).
T7 chain: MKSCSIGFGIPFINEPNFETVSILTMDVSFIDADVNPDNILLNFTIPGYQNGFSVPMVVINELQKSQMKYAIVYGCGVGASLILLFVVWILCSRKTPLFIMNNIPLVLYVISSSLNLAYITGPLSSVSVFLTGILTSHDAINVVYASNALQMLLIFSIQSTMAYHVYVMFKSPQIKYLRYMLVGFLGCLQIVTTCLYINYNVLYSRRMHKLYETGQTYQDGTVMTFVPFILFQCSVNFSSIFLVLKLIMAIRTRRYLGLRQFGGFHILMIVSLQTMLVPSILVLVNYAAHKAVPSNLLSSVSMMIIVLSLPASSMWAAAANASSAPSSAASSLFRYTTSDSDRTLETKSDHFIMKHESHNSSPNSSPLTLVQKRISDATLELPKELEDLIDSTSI

Experiment [8] addresses T8, Cau.Ste2, Ste2-like mating GPCR of Candida auris (Candida auris).
T8 chain: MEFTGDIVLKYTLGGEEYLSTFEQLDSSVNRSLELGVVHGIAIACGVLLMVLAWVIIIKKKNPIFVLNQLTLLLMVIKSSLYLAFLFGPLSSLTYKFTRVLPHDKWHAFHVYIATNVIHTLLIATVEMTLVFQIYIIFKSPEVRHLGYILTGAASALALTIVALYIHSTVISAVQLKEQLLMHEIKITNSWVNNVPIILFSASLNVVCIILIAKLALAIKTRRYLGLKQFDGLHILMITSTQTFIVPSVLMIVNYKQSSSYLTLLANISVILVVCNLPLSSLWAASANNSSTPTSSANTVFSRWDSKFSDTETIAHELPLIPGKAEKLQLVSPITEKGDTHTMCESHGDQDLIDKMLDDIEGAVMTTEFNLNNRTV

Experiment [9] addresses T9, Zr.Ste2, Ste2-like mating GPCR of Zygosaccharomyces rouxii (Zygosaccharomyces rouxii).
T9 chain: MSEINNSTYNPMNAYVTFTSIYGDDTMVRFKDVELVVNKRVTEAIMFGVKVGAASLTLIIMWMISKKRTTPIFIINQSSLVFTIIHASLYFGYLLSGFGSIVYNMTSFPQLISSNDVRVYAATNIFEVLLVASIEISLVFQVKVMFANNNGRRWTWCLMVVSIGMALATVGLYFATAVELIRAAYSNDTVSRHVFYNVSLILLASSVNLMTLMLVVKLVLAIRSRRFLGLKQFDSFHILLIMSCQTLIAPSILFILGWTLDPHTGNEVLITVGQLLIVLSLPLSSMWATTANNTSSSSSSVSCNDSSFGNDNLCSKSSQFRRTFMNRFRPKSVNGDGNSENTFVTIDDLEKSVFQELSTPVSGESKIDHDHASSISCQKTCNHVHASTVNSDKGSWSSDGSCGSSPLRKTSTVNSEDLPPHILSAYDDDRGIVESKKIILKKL

As for WHWVRLRKGQGLF [Cg peptide ligand #1 WHWVRLRKGQGLF], in experiment [1], the “Bttm (FUS1p-RFP reporter)” value was 30.5 fluorescence/A600 (not printed), the “EC50 (FUS1p-RFP reporter)” value was -5.9 log10 M (not printed), the “Fold Change (FUS1p-RFP reporter)” value came out at 7 fold and the “Span (FUS1p-RFP reporter)” value is 183 fluorescence/A600 (not printed). Further, the “Top (FUS1p-RFP reporter)” value in experiment [1] was 214 fluorescence/A600 (not printed).
Take HLVRLSPGAAMF [Zb peptide ligand #1 HLVRLSPGAAMF]: in experiment [2], the “Bttm (FUS1p-RFP reporter)” value is 39.1 fluorescence/A600 (not printed), the “EC50 (FUS1p-RFP reporter)” value is -5.8 log10 M (not printed), the “Fold Change (FUS1p-RFP reporter)” value is 7.5 fold and the “Span (FUS1p-RFP reporter)” value is 253 fluorescence/A600 (not printed). Moreover, the “Top (FUS1p-RFP reporter)” value in experiment [2] was 292 fluorescence/A600 (not printed).
For the molecule WHWLRLRYGEPIY [Vp2 peptide ligand #1 WHWLRLRYGEPIY], in experiment [3], the “Bttm (FUS1p-RFP reporter)” value is 28 fluorescence/A600 (not printed), the “EC50 (FUS1p-RFP reporter)” value was -7.7 log10 M (not printed), the “Fold Change (FUS1p-RFP reporter)” value worked out at 7.7 fold and the “Span (FUS1p-RFP reporter)” value was 187 fluorescence/A600 (not printed). The “Top (FUS1p-RFP reporter)” value in experiment [3] is 215 fluorescence/A600 (not printed).
Consider KWKWIKFRNTDVIG [Cl peptide ligand #1 KWKWIKFRNTDVIG], for which, in [4], the “Bttm (FUS1p-RFP reporter)” value was 39.8 fluorescence/A600 (not printed), the “EC50 (FUS1p-RFP reporter)” value was -7.5 log10 M (not printed), the “Fold Change (FUS1p-RFP reporter)” value stood at 1.4 fold and the “Span (FUS1p-RFP reporter)” value is 186 fluorescence/A600 (not printed). Moreover, the “Top (FUS1p-RFP reporter)” value in [4] was 226 fluorescence/A600 (not printed).
In the case of WHWLELDNGQPIY [Vp1 peptide ligand #1 WHWLELDNGQPIY], in experiment [5], the “Bttm (FUS1p-RFP reporter)” value is 28.8 fluorescence/A600 (not printed), the “EC50 (FUS1p-RFP reporter)” value was -8.6 log10 M (not printed), the “Fold Change (FUS1p-RFP reporter)” value turned out to be 8.4 fold and the “Span (FUS1p-RFP reporter)” value was 214 fluorescence/A600 (not printed). Besides, in [5], the “Top (FUS1p-RFP reporter)” value was 243 fluorescence/A600 (not printed).
In the case of GFRLTNFGYFEPG [Ca peptide ligand #1 GFRLTNFGYFEPG], in experiment [6], the “Bttm (FUS1p-RFP reporter)” value was 38.9 fluorescence/A600 (not printed), the “EC50 (FUS1p-RFP reporter)” value is -7.7 log10 M (not printed), the “Fold Change (FUS1p-RFP reporter)” value is 7 fold and the “Span (FUS1p-RFP reporter)” value is 233 fluorescence/A600 (not printed). Besides, the “Top (FUS1p-RFP reporter)” value in experiment [6] was 272 fluorescence/A600 (not printed).
Turning to KKNSRFLTYWFFQPIM [Cgu peptide ligand #1 KKNSRFLTYWFFQPIM], in [7], the “Bttm (FUS1p-RFP reporter)” value was 41.2 fluorescence/A600 (not printed), the “EC50 (FUS1p-RFP reporter)” value was -7.4 log10 M (not printed), the “Fold Change (FUS1p-RFP reporter)” value worked out at 5.1 fold and the “Span (FUS1p-RFP reporter)” value is 170 fluorescence/A600 (not printed). Moreover, in experiment [7], the “Top (FUS1p-RFP reporter)” value is 212 fluorescence/A600 (not printed).
With KWGWLRFFPGEPFV [Cau peptide ligand #1 KWGWLRFFPGEPFV], in experiment [8], the “Bttm (FUS1p-RFP reporter)” value is 50.6 fluorescence/A600 (not printed), the “EC50 (FUS1p-RFP reporter)” value was -8.1 log10 M (not printed), the “Fold Change (FUS1p-RFP reporter)” value was 6.7 fold and the “Span (FUS1p-RFP reporter)” value was 286 fluorescence/A600 (not printed). Besides, the “Top (FUS1p-RFP reporter)” value in experiment [8] was 337 fluorescence/A600 (not printed).
As for HFIELDPGQPMF [Zr peptide ligand #1 (Table 3: …)], in [9], the “Bttm (FUS1p-RFP reporter)” value was 57.2 fluorescence/A600 (not printed), the “EC50 (FUS1p-RFP reporter)” value was -7.4 log10 M (not printed), the “Fold Change (FUS1p-RFP reporter)” value is 1.9 fold and the “Span (FUS1p-RFP reporter)” value was 52.7 fluorescence/A600 (not printed). In [9], the “Top (FUS1p-RFP reporter)” value was 110 fluorescence/A600 (not printed).
